Measurements reported in PMC10786891, “Massively parallel profiling of RNA-targeting CRISPR-Cas13d”.

T1: EsCas13d, nuclease-dead (Eubacterium siraeum, UniProt B0MS50, R295A;H300A;R849A;H854A)
T1 sequence: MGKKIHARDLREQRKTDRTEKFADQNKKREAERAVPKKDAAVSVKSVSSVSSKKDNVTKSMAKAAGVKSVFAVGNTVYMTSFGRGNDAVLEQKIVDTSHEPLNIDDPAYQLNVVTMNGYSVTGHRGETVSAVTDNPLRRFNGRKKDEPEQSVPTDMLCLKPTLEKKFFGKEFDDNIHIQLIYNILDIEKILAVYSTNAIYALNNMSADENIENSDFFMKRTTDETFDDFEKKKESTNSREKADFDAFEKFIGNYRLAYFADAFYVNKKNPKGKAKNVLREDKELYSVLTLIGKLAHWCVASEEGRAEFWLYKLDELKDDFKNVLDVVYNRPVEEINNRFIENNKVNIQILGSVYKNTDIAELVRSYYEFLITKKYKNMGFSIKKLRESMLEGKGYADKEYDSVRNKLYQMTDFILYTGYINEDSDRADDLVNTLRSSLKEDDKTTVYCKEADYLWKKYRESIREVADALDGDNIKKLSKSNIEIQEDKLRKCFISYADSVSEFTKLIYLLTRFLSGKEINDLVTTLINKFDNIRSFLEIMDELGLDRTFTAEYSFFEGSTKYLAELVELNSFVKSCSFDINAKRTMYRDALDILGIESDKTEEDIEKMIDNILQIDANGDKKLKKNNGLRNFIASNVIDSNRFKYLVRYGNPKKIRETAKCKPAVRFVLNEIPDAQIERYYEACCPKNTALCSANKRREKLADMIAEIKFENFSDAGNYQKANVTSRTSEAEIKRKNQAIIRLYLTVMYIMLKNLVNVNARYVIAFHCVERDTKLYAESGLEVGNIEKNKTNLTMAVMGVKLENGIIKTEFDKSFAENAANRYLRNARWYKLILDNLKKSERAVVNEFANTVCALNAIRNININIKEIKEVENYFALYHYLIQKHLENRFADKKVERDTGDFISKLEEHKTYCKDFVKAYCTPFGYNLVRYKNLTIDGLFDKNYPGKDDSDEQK


The binders below were run against T1, EsCas13d, nuclease-dead (assay: crRNA (strand 1, pre-loaded); Mg2+; 40 mM Tris-HCl pH 7.5, 150 mM NaCl, 6 mM MgCl2, 1 mM DTT, 0.1% Tween-20, 0.2 mg/ml BSA; 25 C; 10 min per concentration, then washed). Details: tags: His6-TwinStrep-SUMO cleaved; N-terminal SNAP kept (SNAP-Surface 488); label: 3' end held by stalled T7 RNA polymerase.

Binder | Kd [nM]
target 2 MT 5'PFS GUU 3'PFS AUU (mixed) RNA 1: CACCCGUGCAAAAUUGCAGGGGUCUAAAACCUUCUCCAAAUUGUUUCAUCCU RNA 2: GGGAAUGGAUCCACAUCUACGAAUUCGUUAGGAUGAAACAAUUUGGAGAAGAUUAGAUCGGAAGAGCACACGU | 11.6 ± 1.4
target 2 MT 5'PFS UCG 3'PFS UAG (mixed) RNA 1: CACCCGUGCAAAAUUGCAGGGGUCUAAAACCUUCUCCAAAUUGUUUCAUCCU RNA 2: GGGAAUGGAUCCACAUCUACGAAUUCUCGAGGAUGAAACAAUUUGGAGAAGUAGAGAUCGGAAGAGCACACGU | 27 ± 7
target 2 MT 5'PFS CAU 3'PFS CGC (mixed) RNA 1: CACCCGUGCAAAAUUGCAGGGGUCUAAAACCUUCUCCAAAUUGUUUCAUCCU RNA 2: GGGAAUGGAUCCACAUCUACGAAUUCCAUAGGAUGAAACAAUUUGGAGAAGCGCAGAUCGGAAGAGCACACGU | 3.4 ± 0.6
target 2 MT 5'PFS AGC 3'PFS AUG (mixed) RNA 1: CACCCGUGCAAAAUUGCAGGGGUCUAAAACCUUCUCCAAAUUGUUUCAUCCU RNA 2: GGGAAUGGAUCCACAUCUACGAAUUCAGCAGGAUGAAACAAUUUGGAGAAGAUGAGAUCGGAAGAGCACACGU | 12.6 ± 2.9
target 2 MT 5'PFS AGC 3'PFS AUA (mixed) RNA 1: CACCCGUGCAAAAUUGCAGGGGUCUAAAACCUUCUCCAAAUUGUUUCAUCCU RNA 2: GGGAAUGGAUCCACAUCUACGAAUUCAGCAGGAUGAAACAAUUUGGAGAAGAUAAGAUCGGAAGAGCACACGU | 7.1 ± 1.3
target 2 MT 5'PFS ACG 3'PFS AGC (mixed) RNA 1: CACCCGUGCAAAAUUGCAGGGGUCUAAAACCUUCUCCAAAUUGUUUCAUCCU RNA 2: GGGAAUGGAUCCACAUCUACGAAUUCACGAGGAUGAAACAAUUUGGAGAAGAGCAGAUCGGAAGAGCACACGU | 6.4 ± 1.1
target 2 MT 5'PFS AGC 3'PFS AUU (mixed) RNA 1: CACCCGUGCAAAAUUGCAGGGGUCUAAAACCUUCUCCAAAUUGUUUCAUCCU RNA 2: GGGAAUGGAUCCACAUCUACGAAUUCAGCAGGAUGAAACAAUUUGGAGAAGAUUAGAUCGGAAGAGCACACGU | 6.8 ± 1.2
target 2 MT 5'PFS CGG 3'PFS CCA (mixed) RNA 1: CACCCGUGCAAAAUUGCAGGGGUCUAAAACCUUCUCCAAAUUGUUUCAUCCU RNA 2: GGGAAUGGAUCCACAUCUACGAAUUCCGGAGGAUGAAACAAUUUGGAGAAGCCAAGAUCGGAAGAGCACACGU | 37 ± 18
target 2 MT 5'PFS ACG 3'PFS UUC (mixed) RNA 1: CACCCGUGCAAAAUUGCAGGGGUCUAAAACCUUCUCCAAAUUGUUUCAUCCU RNA 2: GGGAAUGGAUCCACAUCUACGAAUUCACGAGGAUGAAACAAUUUGGAGAAGUUCAGAUCGGAAGAGCACACGU | 16 ± 6
target 2 MT 5'PFS AGC 3'PFS AUC (mixed) RNA 1: CACCCGUGCAAAAUUGCAGGGGUCUAAAACCUUCUCCAAAUUGUUUCAUCCU RNA 2: GGGAAUGGAUCCACAUCUACGAAUUCAGCAGGAUGAAACAAUUUGGAGAAGAUCAGAUCGGAAGAGCACACGU | 10.9 ± 2.8
target 2 MT 5'PFS UCG 3'PFS UAU (mixed) RNA 1: CACCCGUGCAAAAUUGCAGGGGUCUAAAACCUUCUCCAAAUUGUUUCAUCCU RNA 2: GGGAAUGGAUCCACAUCUACGAAUUCUCGAGGAUGAAACAAUUUGGAGAAGUAUAGAUCGGAAGAGCACACGU | 34 ± 14
target 2 MT 5'PFS CGG 3'PFS CCC (mixed) RNA 1: CACCCGUGCAAAAUUGCAGGGGUCUAAAACCUUCUCCAAAUUGUUUCAUCCU RNA 2: GGGAAUGGAUCCACAUCUACGAAUUCCGGAGGAUGAAACAAUUUGGAGAAGCCCAGAUCGGAAGAGCACACGU | ~19
target 2 MT 5'PFS ACG 3'PFS AGA (mixed) RNA 1: CACCCGUGCAAAAUUGCAGGGGUCUAAAACCUUCUCCAAAUUGUUUCAUCCU RNA 2: GGGAAUGGAUCCACAUCUACGAAUUCACGAGGAUGAAACAAUUUGGAGAAGAGAAGAUCGGAAGAGCACACGU | 7.8 ± 2.4
target 2 MT 5'PFS AUU 3'PFS UUU (mixed) RNA 1: CACCCGUGCAAAAUUGCAGGGGUCUAAAACCUUCUCCAAAUUGUUUCAUCCU RNA 2: GGGAAUGGAUCCACAUCUACGAAUUCAUUAGGAUGAAACAAUUUGGAGAAGUUUAGAUCGGAAGAGCACACGU | 32 ± 7
target 2 MT 5'PFS CGG 3'PFS CCG (mixed) RNA 1: CACCCGUGCAAAAUUGCAGGGGUCUAAAACCUUCUCCAAAUUGUUUCAUCCU RNA 2: GGGAAUGGAUCCACAUCUACGAAUUCCGGAGGAUGAAACAAUUUGGAGAAGCCGAGAUCGGAAGAGCACACGU | 4.7 ± 0.4
target 2 MT 5'PFS ACU 3'PFS UGU (mixed) RNA 1: CACCCGUGCAAAAUUGCAGGGGUCUAAAACCUUCUCCAAAUUGUUUCAUCCU RNA 2: GGGAAUGGAUCCACAUCUACGAAUUCACUAGGAUGAAACAAUUUGGAGAAGUGUAGAUCGGAAGAGCACACGU | 8.1 ± 1
target 2 MT 5'PFS GUU 3'PFS AUA (mixed) RNA 1: CACCCGUGCAAAAUUGCAGGGGUCUAAAACCUUCUCCAAAUUGUUUCAUCCU RNA 2: GGGAAUGGAUCCACAUCUACGAAUUCGUUAGGAUGAAACAAUUUGGAGAAGAUAAGAUCGGAAGAGCACACGU | 13.3 ± 1.9
target 2 MT 5'PFS CAA 3'PFS CCG (mixed) RNA 1: CACCCGUGCAAAAUUGCAGGGGUCUAAAACCUUCUCCAAAUUGUUUCAUCCU RNA 2: GGGAAUGGAUCCACAUCUACGAAUUCCAAAGGAUGAAACAAUUUGGAGAAGCCGAGAUCGGAAGAGCACACGU | 7.3 ± 2.9
target 2 MT 5'PFS GUU 3'PFS AUG (mixed) RNA 1: CACCCGUGCAAAAUUGCAGGGGUCUAAAACCUUCUCCAAAUUGUUUCAUCCU RNA 2: GGGAAUGGAUCCACAUCUACGAAUUCGUUAGGAUGAAACAAUUUGGAGAAGAUGAGAUCGGAAGAGCACACGU | 19.6 ± 2.4
target 2 MT 5'PFS GUU 3'PFS AUC (mixed) RNA 1: CACCCGUGCAAAAUUGCAGGGGUCUAAAACCUUCUCCAAAUUGUUUCAUCCU RNA 2: GGGAAUGGAUCCACAUCUACGAAUUCGUUAGGAUGAAACAAUUUGGAGAAGAUCAGAUCGGAAGAGCACACGU | 15 ± 1.2
target 2 MT 5'PFS CAA 3'PFS CCA (mixed) RNA 1: CACCCGUGCAAAAUUGCAGGGGUCUAAAACCUUCUCCAAAUUGUUUCAUCCU RNA 2: GGGAAUGGAUCCACAUCUACGAAUUCCAAAGGAUGAAACAAUUUGGAGAAGCCAAGAUCGGAAGAGCACACGU | 10 ± 5
target 2 MT 5'PFS AGG 3'PFS ACU (mixed) RNA 1: CACCCGUGCAAAAUUGCAGGGGUCUAAAACCUUCUCCAAAUUGUUUCAUCCU RNA 2: GGGAAUGGAUCCACAUCUACGAAUUCAGGAGGAUGAAACAAUUUGGAGAAGACUAGAUCGGAAGAGCACACGU | 8.1 ± 1.8
target 2 MT 5'PFS AGG 3'PFS UCU (mixed) RNA 1: CACCCGUGCAAAAUUGCAGGGGUCUAAAACCUUCUCCAAAUUGUUUCAUCCU RNA 2: GGGAAUGGAUCCACAUCUACGAAUUCAGGAGGAUGAAACAAUUUGGAGAAGUCUAGAUCGGAAGAGCACACGU | 13.8 ± 2.1
target 2 MT 5'PFS UCG 3'PFS UAA (mixed) RNA 1: CACCCGUGCAAAAUUGCAGGGGUCUAAAACCUUCUCCAAAUUGUUUCAUCCU RNA 2: GGGAAUGGAUCCACAUCUACGAAUUCUCGAGGAUGAAACAAUUUGGAGAAGUAAAGAUCGGAAGAGCACACGU | 15 ± 4
target 1 insA 3' of 12,insU 3' of 4 (mixed) RNA 1: CACCCGUGCAAAAAUGCAGGGGUCUAAAACUGAGCGGAUAACCUCUCUAUGG RNA 2: GGGAAUGGAUCCACAUCUACGAAUUCGUACCAUAGAGAGGAUUAUCCGCUUCACCGAGAUCGGAAGAGCACACGU | 26.3 ± 1.7
target 1 insU 3' of 21,insA 3' of 11 (mixed) RNA 1: CACCCGUGCAAAAAUGCAGGGGUCUAAAACUGAGCGGAUAACCUCUCUAUGG RNA 2: GGGAAUGGAUCCACAUCUACGAAUUCGUACCUAUAGAGAGGUAUAUCCGCUCACCGAGAUCGGAAGAGCACACGU | 49 ± 5
target 1 insC 3' of 14,insC 3' of 3 (mixed) RNA 1: CACCCGUGCAAAAAUGCAGGGGUCUAAAACUGAGCGGAUAACCUCUCUAUGG RNA 2: GGGAAUGGAUCCACAUCUACGAAUUCGUACCAUAGAGACGGUUAUCCGCUCCACCGAGAUCGGAAGAGCACACGU | 45 ± 7
target 1 insU 3' of 17,insG 3' of 1 (mixed) RNA 1: CACCCGUGCAAAAAUGCAGGGGUCUAAAACUGAGCGGAUAACCUCUCUAUGG RNA 2: GGGAAUGGAUCCACAUCUACGAAUUCGUACCAUAGUAGAGGUUAUCCGCUCAGCCGAGAUCGGAAGAGCACACGU | 17.7 ± 2.1
